In article PMC8626583, “Collagen’s primary structure determines collagen:HSP47 complex stoichiometry” (The Journal of Biological Chemistry, 2021):
Values joined by “and” are separate entries in the source; they are usually repeats but may differ in a detail not shown here. Equal entries are not always repeated.

Assays:
[1] = molecular target: T1, foldon-stabilized collagen model peptide with the guest GPRGFP; assay: ELISA; collagen model peptides or collagen I coated on Nunc MaxiSorp (500 ng/well), blocked with 1% BSA in TBS; soluble HSP47 in a 1:4 dilution series from 8 or 10 μM; detected by anti-His-HRP; triplicates, four-parameter logistic fit
[2] = molecular target: T2, foldon-stabilized collagen model peptide with the guest GPRGPP; assay: as above
[3] = molecular target: T1, foldon-stabilized collagen model …; assay: AUC; sedimentation velocity with fluorescence detection; ATTO488-labelled foldon CMP at 1 μM with HSP47 at ratios (CMP:HSP47) 1:1 to 1:20; 20 mM HEPES, 150 mM NaCl pH 7.5; 42,000 rpm
[4] = molecular target: T2, foldon-stabilized collagen model …; assay: as above

B1: HSP47 (heat shock protein 47), Canis lupus, residues 36-418 with C-terminal hexahistidine tag, C7C419 36-418 (natural protein)
chain: LSPKAATLAERSAGLAFSLYQAMAKDQAVENILLSPVVVASSLGLVSLGGKATTASQAKAVLSAEQLRDEEVHAGLGELLRSLSNSTARNVTWKLGSRLYGPSSVSFAEDFVRSSKQHYNCEHSKINFRDKRSALQSINEWAAQTTDGKLPEVTKDVERTDGALLVNAMFFKPHWDEKFHHKMVDNRGFMVTRSYTVGVTMMHRTGLYNYYDDEKEKLQIVEMPLAHKLSSLIILMPHHVEPLERLEKLLTKEQLKIWMGKMQKKAVAISLPKGVVEVTHDLQKHLAGLGLTEAIDKNKADLSRMSGKKDLYLASVFHATAFEWDTEGNPFDQDIYGREELRSPKLFYADHPFIFLVRDTQSGSLLFIGRLVRPKGDKMRDEL
[1]
  Kd: 12 nM
[2]
  Kd: 36 nM and 21.7 nM
[3]
  stoichiometry N (HSP47 per CMP trimer): 1
[4]
  stoichiometry N (HSP47 per CMP trimer): 2
